{"source": "patent EP2717941B1", "about": "(TLA Targeted Immunotherapies AB, dated 2020)", "binders": {"B1": {"name": "biotinRANTES (CCL5), RANTES derivatised at the ε-amino side chain functionality of Lys(67) with Biotin (ligand)", "chain": "SPYSSDTTPCCFAYIARPLPRAHIKEYFYTSGKCSNPAVVFVTRKNRQVCANPEKKWVREYINSLEK(Biotin)S", "modifications": "ends and bridges not checked"}, "B2": {"name": "biotinMDC (CCL22), MDC derivatised at the ε-amino side chain functionality of Lys(66) with PEG-Biotin (ligand)", "chain": "GPYGANMEDSVCCRDYVRYRLPLRVVKHFYWTSDSCPRPGVVLLTFRDKEICADPRVPWVKMILNK([PEG-Biotin])LSQ-NH2", "modifications": "ends and bridges not checked"}, "B3": {"name": "biotinITAC (CXCL11), ITAC derivatised with Biotin at the ε-amino side chain functionality of an additional Lysine inserted at the C-terminus after a PEG spacer (ligand)", "chain": "FPMFKRGRCLCIGPGVKAVKVADIEKASIMYPSNNCDKIEVIITLKENKGQRCLNPKSKQARLIIKKVERKNFX", "modifications": "X (position 74) is PEG-K(Biotin): PEG spacer between the protein's C-terminus and an additional biotinylated lysine"}, "B4": {"name": "biotinTARC (CCL17), TARC derivatised at the ε-amino side chain functionality of Lys(72) with PEG-Biotin (ligand)", "chain": "ARGTNVGRECCLEYFKGAIPLRKLKTWYQTSEDCSRDAIVFVTVQGRAICSDPNNKRVKNAVKYLQSLERSK([PEG-Biotin])-NH2", "modifications": "ends and bridges not checked; also: TFA salt"}, "B5": {"name": "biotinMIP-3β (CCL19), MIP-3β derivatised at the ε-amino side chain functionality of Lys(78) with Biotin (ligand)", "chain": "GTNDAEDCCLSVTQKPIPGYIVRNFHYLLIKDGCRVPAVVFTTLRGRQLCAPPDQPWVERIIQRLQRTSAKMKRRSSX", "modifications": "additional Lys(78) = K(Biotin); assembled on Rink Amide resin (C-terminal amide)"}, "B6": {"name": "biotinCTAC (CCL27), CTAC derivatised at the ε-amino side chain functionality of Lys(87) with PEG-Biotin (ligand)", "chain": "FLLPPSTACCTQLYRKPLSDKLLRKVIQVELQEADGDCHLQAFVLHLAQRSICIHPQNPSLSQWFEHQERKLHGTLPKLNFGMLRKK([PEG-Biotin])G", "modifications": "ends and bridges not checked"}}, "assay_in_all_cases": "cell-based or functional assay", "key": {"[1]": {"molecular_target": "hCCR5 (human, UniProt P51681 1-352)", "sequence (P51681 whole entry)": "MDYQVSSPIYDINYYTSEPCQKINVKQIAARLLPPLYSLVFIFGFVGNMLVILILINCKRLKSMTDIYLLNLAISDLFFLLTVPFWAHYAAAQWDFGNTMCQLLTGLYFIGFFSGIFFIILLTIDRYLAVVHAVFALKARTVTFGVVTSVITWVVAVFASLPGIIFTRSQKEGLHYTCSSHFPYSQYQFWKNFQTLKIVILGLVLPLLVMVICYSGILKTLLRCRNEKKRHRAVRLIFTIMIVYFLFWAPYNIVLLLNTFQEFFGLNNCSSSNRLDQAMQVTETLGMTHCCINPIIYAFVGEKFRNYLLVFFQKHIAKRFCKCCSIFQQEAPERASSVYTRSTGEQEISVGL"}, "[2]": {"molecular_target": "T1, CCR4 (human, UniProt P51679 1-360)", "T1 sequence (looked up)": "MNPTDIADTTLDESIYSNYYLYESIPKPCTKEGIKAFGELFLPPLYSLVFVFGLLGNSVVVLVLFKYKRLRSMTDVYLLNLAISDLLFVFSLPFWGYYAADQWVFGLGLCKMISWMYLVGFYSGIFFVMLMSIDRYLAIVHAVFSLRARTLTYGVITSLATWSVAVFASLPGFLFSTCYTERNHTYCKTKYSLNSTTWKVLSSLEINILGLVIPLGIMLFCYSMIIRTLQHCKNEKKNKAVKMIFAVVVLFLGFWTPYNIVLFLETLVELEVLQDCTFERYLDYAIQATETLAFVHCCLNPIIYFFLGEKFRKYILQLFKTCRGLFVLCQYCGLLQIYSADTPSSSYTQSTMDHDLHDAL"}, "[3]": {"molecular_target": "T2, hCXCR3 (human, UniProt P49682 1-368)", "T2 sequence (looked up)": "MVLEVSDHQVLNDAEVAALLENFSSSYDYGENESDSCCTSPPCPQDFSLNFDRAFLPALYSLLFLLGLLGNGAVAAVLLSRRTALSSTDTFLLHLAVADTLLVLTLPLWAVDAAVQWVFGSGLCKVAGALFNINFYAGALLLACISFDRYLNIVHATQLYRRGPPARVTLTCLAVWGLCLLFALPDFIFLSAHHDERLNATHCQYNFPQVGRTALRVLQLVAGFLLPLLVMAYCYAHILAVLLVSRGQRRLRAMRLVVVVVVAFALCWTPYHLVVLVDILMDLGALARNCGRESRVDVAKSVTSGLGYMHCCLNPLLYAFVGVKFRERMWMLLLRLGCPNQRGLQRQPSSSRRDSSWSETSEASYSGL"}, "[4]": {"molecular_target": "T3, chemokine receptor CCR7 (human, UniProt P32248 25-378)", "T3 sequence (looked up)": "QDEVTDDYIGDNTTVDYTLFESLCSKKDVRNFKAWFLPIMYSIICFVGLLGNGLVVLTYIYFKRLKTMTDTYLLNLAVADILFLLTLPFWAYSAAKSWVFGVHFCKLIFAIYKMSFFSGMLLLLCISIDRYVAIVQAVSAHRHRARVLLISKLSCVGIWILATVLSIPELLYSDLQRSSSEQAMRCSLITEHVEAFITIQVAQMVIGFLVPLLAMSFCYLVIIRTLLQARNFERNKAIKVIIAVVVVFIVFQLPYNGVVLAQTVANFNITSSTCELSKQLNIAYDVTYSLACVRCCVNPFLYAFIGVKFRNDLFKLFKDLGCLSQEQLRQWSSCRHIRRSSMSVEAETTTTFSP"}, "[5]": {"molecular_target": "T4, hCCR10 (human, UniProt P46092 1-362)", "T4 sequence (looked up)": "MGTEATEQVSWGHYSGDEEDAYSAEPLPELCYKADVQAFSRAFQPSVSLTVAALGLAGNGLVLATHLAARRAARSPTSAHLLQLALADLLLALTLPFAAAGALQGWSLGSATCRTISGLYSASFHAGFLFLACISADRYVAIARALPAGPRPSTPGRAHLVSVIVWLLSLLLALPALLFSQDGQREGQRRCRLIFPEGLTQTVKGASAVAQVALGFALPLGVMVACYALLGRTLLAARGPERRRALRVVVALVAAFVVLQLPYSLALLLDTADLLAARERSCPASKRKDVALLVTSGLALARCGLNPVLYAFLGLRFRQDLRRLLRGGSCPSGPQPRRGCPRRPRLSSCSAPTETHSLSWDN"}}, "note": "Groups on a side chain read outwards from the residue. *: point of attachment. Biotin = O=C1N[C@H]2[C@H](CS[C@H]2CCCCC(=O)*)N1; PEG = not defined here"}
{"binder": "B1", "values": [{"measurement": "EC50, agonist activity, Aequorin assay", "setting": "[1]", "result": 0.5, "unit": "nM"}]}
{"binder": "B2", "values": [{"measurement": "EC50, agonist activity, Aequorin assay", "setting": "[2]", "result": 4.5, "unit": "nM"}]}
{"binder": "B3", "values": [{"measurement": "EC50, agonist activity, Aequorin assay", "setting": "[3]", "result": 15.7, "unit": "nM"}]}
{"binder": "B4", "values": [{"measurement": "EC50, agonist activity, Aequorin assay", "setting": "[2]", "result": 3.1, "unit": "nM"}]}
{"binder": "B5", "values": [{"measurement": "EC50, agonist activity, Aequorin assay", "setting": "[4]", "result": 11, "unit": "nM"}]}
{"binder": "B6", "values": [{"measurement": "EC50, agonist activity, Aequorin assay", "setting": "[5]", "result": 49.4, "unit": "nM"}]}
